Source: patent US5492821A, “Stabilized polyacrylic saccharide protein conjugates” (Cargill, Inc., priority 1991, dated 1996)

Assays:
[1] = substrate: C[C@H](NC(=O)CCC(=O)O)C(=O)N[C@@H](C)C(=O)N1CCC[C@H]1C(=O)N[C@@H](Cc1ccccc1)C(=O)Nc1ccc([N+](=O)[O-])cc1; test: Km and kcat of enzyme, Table 1; type: biochemical; settings: other: 0.05M sodium phosphate buffer at pH 8 containing 10% methanol
Experimental: (§1) The yield of the active enzyme was determined by comparison of the relative activity of the native trypsin and the trypsin-polymer conjugate for N-succinyl-Ala-Ala-Pro-Phe p-nitroanilide as the substrate in 0.05M sodium phosphate buffer at pH 8 containing 10% methanol.
The procedure of EXAMPLE 8 (a) (i) was repeated in every essential detail except that Carlsberg-subtilisin was used instead of trypsin.

[2] = substrate: C[C@H](NC(=O)CCC(=O)O)C(=O)N[C@@H](C)C(=O)N1CCC[C@H]1C(=O)N[C@@H](Cc1ccccc1)C(=O)Nc1ccc([N+](=O)[O-])cc1; test: Km and kcat of enzyme, Table 1; type: biochemical; settings: other: 0.05M sodium phosphate buffer at pH 8 containing 10% methanol; remark: listed apart in the source
Experimental: as §1
The procedure of EXAMPLE 8 (a) (i) was repeated in every essential detail except that BPN'-subtilisin was used instead of trypsin.

| Protein | Km [1] [µM] | kcat [1] [s⁻¹] | Km [2] [µM] | kcat [2] [s⁻¹] |
| --- | --- | --- | --- | --- |
| Carlsberg-subtilisin (native) (Bacillus licheniformis) (protein) AQTVPYGIPLIKADKVQAQGFKGANVKVAVLDTGIQASHPDLNVVGGASFVAGEAYNTDGNGHGTHVAGTVAALDNTTGVLGVAPSVSLYAVKVLNSSGSGSYSGIVSGIEWATTNGMDVINMSLGGASGSTAMKQAVDNAYAKGVVVVAAAGNSGSSGNTNTIGYPAKYDSVIAVGAVDSNSNRASFSSVGAELEVMAPGAGVYSTYPTNTYATLNGTSMASPHVAGAAALILSKHPNLSASQVRNRLSSTATYLGSSFYYGKGLINVEAAAQ | 251 | 420 | – | – |
| BPN'-subtilisin (native) (Bacillus amyloliquefaciens) (protein) AQSVPYGVSQIKAPALHSQGYTGSNVKVAVIDSGIDSSHPDLKVAGGASMVPSETNPFQDNNSHGTHVAGTVAALNNSIGVLGVAPSASLYAVKVLGADGSGQYSWIINGIEWAIANNMDVINMSLGGPSGSAALKAAVDKAVASGVVVVAAAGNEGTSGSSSTVGYPGKYPSVIAVGAVDSSNQRASFSSVGPELDVMAPGVSIQSTLPGNKYGAYNGTSMASPHVAGAAALILSKHPNWTNTQVRSSLENTTTKLGDSFYYGKGLINVQAAAQ | – | – | 240 | 83 |
